Measurements as given in patent US6323185.

Tests used:
[1] = target: T1, SIV integrase (Simian immunodeficiency virus) (UniProt P05897); assay: inhibition; conditions: PS at first and last internucleoside linkages, 3'-OH; 3'-processing
T1 sequence: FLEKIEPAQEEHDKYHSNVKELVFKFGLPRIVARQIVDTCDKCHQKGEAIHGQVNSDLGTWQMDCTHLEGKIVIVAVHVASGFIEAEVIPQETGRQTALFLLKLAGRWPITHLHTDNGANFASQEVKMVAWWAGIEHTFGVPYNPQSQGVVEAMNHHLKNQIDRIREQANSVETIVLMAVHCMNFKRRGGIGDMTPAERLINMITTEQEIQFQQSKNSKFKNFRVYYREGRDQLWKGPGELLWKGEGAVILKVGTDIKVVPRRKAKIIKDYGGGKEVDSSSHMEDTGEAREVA

[2] = target: HIV-1 integrase wild-type (IN1-288) (HIV-1) (UniProt P12497); assay: inhibition; conditions: 3'-processing

Sequence: GTGGTGGGTGGGTGGGT [T30177 (AR177, Zintevir)]
- IC50 [1]: 420 nM

Sequence: TCTTCCTCTCTCTACCCACGCTCIC [T30658 antisense GEM91 variant PD]
- IC50 ([2]; all phosphodiester, strand transfer >0.5 uM): > 500 nM

Sequence: TCTTCCTCTCTCTACCCACGCTCIC [T30662 antisense GEM91 variant pPT]
- IC50 ([2]; PS at first and last linkages, strand transfer >0.5 uM): > 500 nM

Sequence: TCTTCCTCTCTCTACCCACGCTCIC [T30531 antisense GEM91 variant PT]
- IC50 ([2]; all PS, strand transfer 0.036 uM): 30 nM
